Laboratory results: the supplement of paper PMC10065799, “High-throughput profiling of sequence recognition by tyrosine kinases and SH2 domains using bacterial peptide display” (eLife, 2023)

Legend:
[1] = target: MERTK (UniProt Q12866); experiment: phosphorylation enrichment, bacterial display (enrichment ratio); higher = better substrate or ligand; peptides without Tyr show the background
[2] = target: EPHB2 (UniProt P29323); experiment: as above
[3] = system: Fer (mouse); experiment: as above
[4] = target: Jak2 (UniProt O60674); experiment: as above
[5] = system: c-Abl (mouse); experiment: as above
[6] = system: c-Src; experiment: as above
[7] = target: FGFR3 (UniProt P22607); experiment: as above
[8] = target: Fyn (UniProt P06241); experiment: as above
[9] = target: FGFR1 (UniProt P11362); experiment: as above
[10] = target: Hck (UniProt P08631); experiment: as above
[11] = system: AncSZ; experiment: as above
[12] = target: EPHB1 (UniProt P54762); experiment: as above
[13] = target: Fes (UniProt P07332); experiment: as above
[14] = target: Grb2 SH2 (UniProt P62993); experiment: SH2 binding enrichment of the phosphorylated peptide, bacterial display (enrichment ratio); higher = better substrate or ligand; peptides without Tyr show the background
[15] = target: SHP2-C SH2; experiment: as above
[16] = target: c-Src SH2; experiment: as above
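Throughout, for SH2 binding enrichment of the phosphorylated peptide, bacterial display: peptide library displayed on the E. coli surface as eCPX fusions, selected cells deep-sequenced, score is each peptide's frequency after selection divided by its frequency in the input.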
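Throughout, for phosphorylation enrichment, bacterial display: 11-residue human phosphosite peptides and single-mutation variants displayed on the E. coli surface, counted by deep sequencing, each peptide's frequency after selection divided by its frequency in the unselected input library; frequency after pTyr selection over input frequency; kinase dosed for 20-30% of maximal phosphorylation in three min.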

Sequence of Jak2 (O60674 whole entry, looked up): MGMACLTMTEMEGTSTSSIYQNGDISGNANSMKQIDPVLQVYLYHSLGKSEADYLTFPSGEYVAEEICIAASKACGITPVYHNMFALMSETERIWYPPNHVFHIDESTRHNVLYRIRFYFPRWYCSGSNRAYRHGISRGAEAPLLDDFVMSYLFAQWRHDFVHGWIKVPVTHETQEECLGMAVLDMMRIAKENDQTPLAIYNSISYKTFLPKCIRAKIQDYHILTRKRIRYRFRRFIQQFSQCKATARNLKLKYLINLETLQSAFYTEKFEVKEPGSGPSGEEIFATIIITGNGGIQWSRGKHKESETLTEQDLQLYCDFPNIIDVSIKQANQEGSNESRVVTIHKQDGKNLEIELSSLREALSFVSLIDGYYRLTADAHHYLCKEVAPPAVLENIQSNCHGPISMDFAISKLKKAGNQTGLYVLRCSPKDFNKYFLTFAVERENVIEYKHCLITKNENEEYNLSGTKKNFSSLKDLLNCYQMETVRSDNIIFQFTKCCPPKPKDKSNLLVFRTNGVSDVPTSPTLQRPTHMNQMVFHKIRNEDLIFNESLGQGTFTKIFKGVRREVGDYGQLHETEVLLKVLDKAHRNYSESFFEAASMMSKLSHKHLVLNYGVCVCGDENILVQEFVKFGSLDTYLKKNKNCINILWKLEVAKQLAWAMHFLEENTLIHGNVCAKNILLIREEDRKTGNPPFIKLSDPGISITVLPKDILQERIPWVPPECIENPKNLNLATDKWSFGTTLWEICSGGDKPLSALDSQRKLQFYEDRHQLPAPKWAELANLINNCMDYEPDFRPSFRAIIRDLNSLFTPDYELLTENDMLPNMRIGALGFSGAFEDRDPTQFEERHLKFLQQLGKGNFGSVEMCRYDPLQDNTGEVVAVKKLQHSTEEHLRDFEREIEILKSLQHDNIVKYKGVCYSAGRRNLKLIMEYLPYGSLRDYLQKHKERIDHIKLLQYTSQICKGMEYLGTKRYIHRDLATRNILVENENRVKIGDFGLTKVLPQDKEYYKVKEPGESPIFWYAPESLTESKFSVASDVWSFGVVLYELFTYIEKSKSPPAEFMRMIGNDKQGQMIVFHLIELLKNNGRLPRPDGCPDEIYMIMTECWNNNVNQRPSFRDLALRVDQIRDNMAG
Sequence of FGFR1 (P11362 whole entry, looked up): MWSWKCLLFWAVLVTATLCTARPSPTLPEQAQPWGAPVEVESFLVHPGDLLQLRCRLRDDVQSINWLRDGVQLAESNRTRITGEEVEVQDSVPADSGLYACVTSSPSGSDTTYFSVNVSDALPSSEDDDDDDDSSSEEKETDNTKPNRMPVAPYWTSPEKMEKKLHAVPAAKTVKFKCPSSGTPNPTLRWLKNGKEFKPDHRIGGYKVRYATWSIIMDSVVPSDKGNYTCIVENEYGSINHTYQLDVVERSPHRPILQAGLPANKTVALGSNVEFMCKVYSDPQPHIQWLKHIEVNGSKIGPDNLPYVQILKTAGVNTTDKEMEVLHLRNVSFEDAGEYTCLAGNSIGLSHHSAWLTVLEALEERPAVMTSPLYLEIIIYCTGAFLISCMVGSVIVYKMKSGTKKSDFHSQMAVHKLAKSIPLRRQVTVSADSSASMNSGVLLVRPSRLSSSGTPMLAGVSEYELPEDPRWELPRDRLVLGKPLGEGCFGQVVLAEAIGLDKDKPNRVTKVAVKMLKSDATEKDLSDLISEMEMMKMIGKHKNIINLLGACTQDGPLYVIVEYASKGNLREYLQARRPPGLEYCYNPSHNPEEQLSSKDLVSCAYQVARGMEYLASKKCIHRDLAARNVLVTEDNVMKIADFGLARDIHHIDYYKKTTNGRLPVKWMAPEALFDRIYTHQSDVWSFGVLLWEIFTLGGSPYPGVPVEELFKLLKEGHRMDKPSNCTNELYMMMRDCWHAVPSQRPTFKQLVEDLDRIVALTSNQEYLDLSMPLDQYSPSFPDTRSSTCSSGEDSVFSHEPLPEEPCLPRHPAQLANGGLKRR
Sequence of EPHB1 (P54762 whole entry, looked up): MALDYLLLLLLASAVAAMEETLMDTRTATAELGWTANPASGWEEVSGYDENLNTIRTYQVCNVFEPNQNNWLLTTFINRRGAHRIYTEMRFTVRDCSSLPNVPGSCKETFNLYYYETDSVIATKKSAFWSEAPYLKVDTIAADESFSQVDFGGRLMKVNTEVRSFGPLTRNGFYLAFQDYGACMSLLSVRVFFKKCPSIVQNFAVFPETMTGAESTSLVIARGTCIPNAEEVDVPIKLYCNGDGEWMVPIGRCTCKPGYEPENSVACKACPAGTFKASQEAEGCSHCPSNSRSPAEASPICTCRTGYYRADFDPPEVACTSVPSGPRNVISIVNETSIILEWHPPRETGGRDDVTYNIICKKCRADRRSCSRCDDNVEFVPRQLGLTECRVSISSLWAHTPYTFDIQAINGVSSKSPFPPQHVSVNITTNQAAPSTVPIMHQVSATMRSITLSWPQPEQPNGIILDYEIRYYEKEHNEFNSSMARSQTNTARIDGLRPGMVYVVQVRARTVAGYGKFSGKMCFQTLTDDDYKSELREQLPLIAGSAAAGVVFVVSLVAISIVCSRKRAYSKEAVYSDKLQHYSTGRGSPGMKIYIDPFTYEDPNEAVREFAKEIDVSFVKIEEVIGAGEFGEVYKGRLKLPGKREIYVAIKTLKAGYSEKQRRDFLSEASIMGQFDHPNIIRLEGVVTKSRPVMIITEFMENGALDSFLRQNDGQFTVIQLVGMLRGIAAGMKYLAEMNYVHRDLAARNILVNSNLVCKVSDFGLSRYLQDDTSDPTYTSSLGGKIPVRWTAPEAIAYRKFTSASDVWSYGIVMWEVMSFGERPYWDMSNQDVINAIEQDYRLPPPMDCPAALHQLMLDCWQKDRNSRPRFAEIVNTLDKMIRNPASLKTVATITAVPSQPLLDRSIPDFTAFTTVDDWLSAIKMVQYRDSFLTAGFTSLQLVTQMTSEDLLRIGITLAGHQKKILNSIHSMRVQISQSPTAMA
Sequence of Fes (P07332 whole entry, looked up): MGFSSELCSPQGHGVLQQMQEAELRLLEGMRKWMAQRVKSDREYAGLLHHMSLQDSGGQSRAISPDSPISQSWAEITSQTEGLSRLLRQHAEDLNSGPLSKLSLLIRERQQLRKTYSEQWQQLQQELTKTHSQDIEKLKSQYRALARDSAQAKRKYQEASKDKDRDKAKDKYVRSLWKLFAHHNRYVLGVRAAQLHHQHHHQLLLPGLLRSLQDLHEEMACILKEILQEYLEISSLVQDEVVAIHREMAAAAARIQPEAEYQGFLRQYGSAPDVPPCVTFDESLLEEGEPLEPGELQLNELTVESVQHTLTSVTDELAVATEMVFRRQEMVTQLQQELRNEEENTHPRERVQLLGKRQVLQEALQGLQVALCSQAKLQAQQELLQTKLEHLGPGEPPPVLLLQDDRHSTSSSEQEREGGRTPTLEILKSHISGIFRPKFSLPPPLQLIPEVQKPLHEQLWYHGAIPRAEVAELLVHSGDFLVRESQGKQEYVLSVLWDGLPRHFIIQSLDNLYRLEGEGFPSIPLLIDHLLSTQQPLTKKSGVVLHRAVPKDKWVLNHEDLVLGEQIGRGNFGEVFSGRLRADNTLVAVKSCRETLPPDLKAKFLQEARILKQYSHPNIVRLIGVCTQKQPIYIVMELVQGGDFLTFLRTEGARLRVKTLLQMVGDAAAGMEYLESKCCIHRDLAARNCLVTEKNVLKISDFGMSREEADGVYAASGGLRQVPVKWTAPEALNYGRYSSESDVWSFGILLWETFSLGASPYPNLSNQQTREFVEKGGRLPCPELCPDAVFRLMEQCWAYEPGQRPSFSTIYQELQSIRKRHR
Sequence of Fyn (P06241 whole entry, looked up): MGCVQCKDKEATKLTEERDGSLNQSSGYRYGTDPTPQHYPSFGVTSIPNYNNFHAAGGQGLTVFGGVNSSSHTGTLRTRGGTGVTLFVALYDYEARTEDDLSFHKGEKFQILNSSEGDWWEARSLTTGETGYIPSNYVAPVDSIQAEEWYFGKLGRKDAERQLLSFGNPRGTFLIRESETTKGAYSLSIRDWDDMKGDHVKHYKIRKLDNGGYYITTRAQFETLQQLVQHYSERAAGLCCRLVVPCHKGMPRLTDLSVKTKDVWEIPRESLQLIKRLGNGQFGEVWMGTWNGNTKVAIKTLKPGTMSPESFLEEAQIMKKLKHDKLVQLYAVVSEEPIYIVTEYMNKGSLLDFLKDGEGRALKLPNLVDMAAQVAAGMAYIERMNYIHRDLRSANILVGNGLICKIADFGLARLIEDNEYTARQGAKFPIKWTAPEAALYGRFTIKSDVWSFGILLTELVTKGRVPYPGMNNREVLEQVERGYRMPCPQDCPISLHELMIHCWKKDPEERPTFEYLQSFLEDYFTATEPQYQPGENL
Sequence of FGFR3 (P22607 whole entry, looked up): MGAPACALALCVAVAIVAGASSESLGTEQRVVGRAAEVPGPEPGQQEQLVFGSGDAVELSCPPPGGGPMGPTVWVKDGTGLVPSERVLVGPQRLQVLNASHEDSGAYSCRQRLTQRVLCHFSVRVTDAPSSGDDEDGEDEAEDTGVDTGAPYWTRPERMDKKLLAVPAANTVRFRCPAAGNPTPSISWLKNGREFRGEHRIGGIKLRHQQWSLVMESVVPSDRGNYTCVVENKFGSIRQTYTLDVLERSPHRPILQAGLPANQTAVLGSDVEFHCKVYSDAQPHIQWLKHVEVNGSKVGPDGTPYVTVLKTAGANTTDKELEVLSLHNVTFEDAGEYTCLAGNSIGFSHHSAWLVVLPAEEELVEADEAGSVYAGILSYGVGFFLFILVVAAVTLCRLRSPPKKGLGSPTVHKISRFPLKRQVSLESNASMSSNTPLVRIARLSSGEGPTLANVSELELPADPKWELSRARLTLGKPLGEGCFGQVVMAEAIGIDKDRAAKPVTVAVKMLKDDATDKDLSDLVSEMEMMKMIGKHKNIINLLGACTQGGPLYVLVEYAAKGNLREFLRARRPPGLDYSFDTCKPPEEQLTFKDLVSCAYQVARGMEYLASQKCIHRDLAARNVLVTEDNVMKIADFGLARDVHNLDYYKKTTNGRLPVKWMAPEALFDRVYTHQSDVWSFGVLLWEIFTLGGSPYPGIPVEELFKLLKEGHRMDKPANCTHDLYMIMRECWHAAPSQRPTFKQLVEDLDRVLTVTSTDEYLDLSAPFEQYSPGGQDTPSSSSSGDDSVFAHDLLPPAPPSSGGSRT

SH2 binding enrichment [14] | SH2 binding enrichment [15] | SH2 binding enrichment [16] | Sequence | phosphorylation enrichment [1] | phosphorylation enrichment [2] | phosphorylation enrichment [3] | phosphorylation enrichment [4] | phosphorylation enrichment [5] | phosphorylation enrichment [6] | phosphorylation enrichment [7] | phosphorylation enrichment [8] | phosphorylation enrichment [9] | phosphorylation enrichment [10] | phosphorylation enrichment [11] | phosphorylation enrichment [12] | phosphorylation enrichment [13]
0.904 | 0.646 | 0.428 | RQGKDYIGAIP [KDR_Y951_V952I] | 0.813 | 0.62 | 0.462 | 1.14 | 1.88 | 0.837 | 0.547 | 0.715 | 0.596 | 0.696 | 0.804 | 0.399 | 0.764
0.748 | 0.744 | 0.44 | MVTSGYKAKTI [EFR3A_Y447] | 0.377 | 0.312 | 0.314 | 0.364 | 0.42 | 0.292 | 0.375 | 0.361 | 0.299 | 0.322 | 0.413 | 0.337 | 0.458
0.934 | 0.692 | 0.756 | IPVNGYQPVPA [ROR2_Y824_V819I] | 0.899 | 0.467 | 0.337 | 0.533 | 0.592 | 0.472 | 0.523 | 0.429 | 0.36 | 0.513 | 0.582 | 0.385 | 0.633
0.942 | 1.13 | 0.667 | FRAPGYREVVI [TNS2_Y673_YF] | 0.467 | 0.422 | 0.325 | 0.55 | 0.525 | 0.409 | 0.446 | 0.399 | 0.502 | 0.416 | 0.52 | 0.466 | 0.618
0.767 | 0.623 | 0.678 | SESSYYKSLNL [NGEF_Y289_A286S] | 0.913 | 0.57 | 0.624 | 0.852 | 0.561 | 0.586 | 0.841 | 0.657 | 1.01 | 0.627 | 0.876 | 0.503 | 0.756
0.982 | 0.849 | 0.348 | PDGVEYLKNNP [GRIN3A_Y831_D835N] | 0.546 | 0.452 | 0.499 | 1.31 | 0.748 | 0.539 | 0.769 | 0.543 | 0.503 | 0.664 | 1.21 | 0.527 | 1.05
0.781 | 0.566 | 0.433 | TLKDVYDDGKF [RPS6KA3_Y483_YF] | 0.515 | 0.513 | 0.488 | 0.655 | 0.549 | 0.625 | 0.66 | 0.548 | 0.614 | 0.66 | 0.988 | 0.542 | 1.04
0.688 | 0.598 | 0.483 | PLDGEYFTLQV [TP53_Y327_I332V] | 0.494 | 1.44 | 0.842 | 2.16 | 1.02 | 2.09 | 10.6 | 5.07 | 12.8 | 2.74 | 3.87 | 2.21 | 1.94
0.736 | 0.513 | 0.427 | VRQQVYKKVEE [HADHA_Y283] | 0.346 | 0.411 | 0.331 | 0.639 | 0.446 | 0.397 | 0.536 | 0.44 | 0.344 | 0.387 | 0.617 | 0.378 | 0.716
1.26 | 1.19 | 0.888 | KAIMTYVFSFF [ACTN4_Y260_S262F_YF] | 0.431 | 0.461 | 0.454 | 0.698 | 0.526 | 0.425 | 0.725 | 0.464 | 0.443 | 0.502 | 0.989 | 0.553 | 0.945
1.13 | 0.795 | 0.617 | LDFNEYVRDLN [HPRT1_Y198_F199V_YF] | 0.556 | 0.665 | 0.634 | 1.31 | 0.911 | 0.567 | 0.628 | 0.674 | 0.532 | 0.707 | 1.69 | 0.804 | 1.47
0.593 | 0.497 | 0.389 | KMATAYIRRMS [BCO1_Y264] | 0.468 | 0.495 | 0.362 | 0.58 | 0.544 | 0.514 | 0.431 | 0.425 | 0.461 | 0.425 | 0.68 | 0.359 | 0.572
1.06 | 0.808 | 1.02 | LITTLYIGFLG [KCNQ1_Y267] | 0.989 | 1.12 | 0.929 | 2.33 | 2.22 | 3.29 | 1.89 | 2.11 | 0.712 | 1.51 | 2.41 | 1.19 | 2.46
0.875 | 0.632 | 0.706 | GDEEDYFEIPG [EGFR_opt_F_2015] | 0.532 | 0.723 | 0.5 | 1.21 | 0.78 | 0.628 | 5.08 | 0.504 | 4.57 | 0.532 | 2.75 | 0.571 | 1.22
0.824 | 1.48 | 7.06 | TMKSHYMELFD [BBS2_Y644_R643H_YF] | 0.893 | 0.582 | 0.547 | 0.772 | 0.572 | 0.431 | 0.72 | 0.51 | 0.708 | 0.601 | 1.1 | 0.764 | 0.966
0.647 | 0.64 | 0.422 | QEIATYRPLLE [KRT14_Y415_R417P] | 0.504 | 0.65 | 0.643 | 1.04 | 0.922 | 0.705 | 0.834 | 0.961 | 0.78 | 0.674 | 1.02 | 0.791 | 1.24

Sequence | SH2 binding enrichment [14] | SH2 binding enrichment [15] | SH2 binding enrichment [16] | phosphorylation enrichment [1] | phosphorylation enrichment [2] | phosphorylation enrichment [3] | phosphorylation enrichment [4] | phosphorylation enrichment [5] | phosphorylation enrichment [6] | phosphorylation enrichment [7] | phosphorylation enrichment [8] | phosphorylation enrichment [9] | phosphorylation enrichment [10] | phosphorylation enrichment [11] | phosphorylation enrichment [12] | phosphorylation enrichment [13]
SIKHKYVTALF [KCNH2_Y611_D609H_YF] | 0.78 | 0.901 | 0.473 | 0.4 | 0.474 | 0.416 | 0.694 | 0.524 | 0.402 | 0.511 | 0.377 | 0.354 | 0.419 | 0.674 | 0.471 | 0.622
